Results from patent US20210355235A1, “Compositions and Methods For Treating Cancer with Anti-Renalase antibodies and Anti-PD1 antibodies” (YALE UNIVERSITY, priority 2017, published 2021).
Changes are numbered by the printed parent chain. Read-outs that look alike come from different tables or passages of the source.

What was measured:
[1] = test system: renalase-1 and renalase-2; test: renalase isoform specificity of the antibodies (ELISA / hybridoma screening); format: binding, human; details: renalase-1 vs renalase-2
Experimental: Peptides were used as immunogens. The peptides generated ranged from 9 to 21 amino acids and corresponded to regions of the renalase-1 and renalase-2 proteins. […] Each peptide was conjugated to the adjuvant KLH via the cysteine and used to immunize 6 rabbits. Antiserum collected from each animal was screened for anti-renalase antibody titer by ELISA assay using both the relevant peptide (BSA-conjugate) or full length renalase-1 or 2. The antisera were also tested for their ability to detect endogenous renalase in tissue lysates by western blot. Using these screening criteria the animals producing antibodies with the preferred characteristics were selected. In some examples and for some peptides, several animals produced antibodies with the required specificity. […] Polyclonal antibodies raised against all of the peptides were generated by purification of total IgG from terminal bleeds by protein G chromatography followed by further purification on peptide affinity chromatography. Further and using standard procedures, lymphocytes from the spleens of selected animals were fused to myeloma cells for hybridoma generation. The hybridoma supernatants were screened for binding to both the peptides against which they were raised and secondarily screened against whole renalase protein. Selected hybridomas were sub-cloned and expanded for antibody purification. The monoclonal antibodies were purified from conditioned hybridoma culture supernatant by protein A affinity chromatography.

[2] = test system: PDACC (pancreatic ductal adenocarcinoma cells); test: PDACC viability with anti-RNLS antibodies, WST-1; format: cell-based, human; details: 72 hrs
Experimental: FIG. 25, comprising FIGS. 25A through 25E, is a series of charts and images showing that inhibition of RNLS signaling is cytotoxic to cancer cells in vitro and in vivo. FIG. 25A is a chart showing relative cell viability following transient transfection of Panc1 cells using a RNLS-specific siRNA, or a non-specific control siRNA, and cell viability assayed 96 h later using the WST-1 reagent; n=6, ** indicates p<0.001. FIG. 25B is a chart showing relative cell viability when cells were treated with indicated antibodies for 72 hrs and cell viability determined using WST-1; m28-RNLS and m37-RNLS: monoclonal antibodies raised against RNLS peptide RP220, ab31291: Abcam polyclonal antibody raised against a partial sequence of RP-220; n=6, * indicates p<0.005. […] FIG. 25D is a chart showing tumor volume increase after athymic nude mice received subcutaneous injection of Panc1 cells transduced with RNLS shRNA (sh-RNLS) or control (sh-Control); tumor volume measured every […] for up to 30 days, n=6 each; * indicates p<0.05. FIG. 25E is chart showing tumor volume increase after nude mice were xenografted with BxPC3; tumor volume measured prior to treatment every 3-4 days with 2 mg/kg of either rabbit IgG as a negative control or with m28-RNLS, n=10, * indicates p<0.05.
Cell viability was assessed by trypan blue exclusion, and cells were counted using a BioRad TC10 automated counter.

melanoma cell lines = test: melanoma cells in culture, viability / growth; format: cell-based, human
Experimental: (§1) Total cell number and percentage of live cells were assessed by trypan blue exclusion, and cells were counted using a BioRad TC10 automated cell counter. For additional studies, cell viability was determined using WST-1 reagent (Roche Diagnostics, Indianapolis, Ind., USA) according to the manufacturers' instruction. Absorbances were read using a microplate reader (Power Waves XS, BioTek Instruments, Winooski, Vt., USA).

[3] = test system: A375.S2, MeWo, SkMel5 and SkMel28 cells; test: survival of serum-starved melanoma cells, WST-1; format: cell-based, human; details: 30 ug/ml, 72 hrs
Experimental: as §1
RNLS-mediated signaling is anti-apoptotic, and protects normal cells exposed to toxic stress from apoptotic death (Wang et al., 2014 J Am Soc Nephrol.; Lee et al., 2013 J Am Soc Nephrol. 24:445-55). To explore if RNLS signaling favored the survival of cancer cells, either recombinant RNLS (rRNLS) or bovine serum albumin (BSA) was added to serum-starved melanoma cells (A375.S2, MeWo, SkMel5, and SkMel28) in culture, and cell viability was determined. […] The total cell number and percentage of live cells of those treated with RNLS were counted to determine if the apparent increase in proliferative rate was due an increase in cell proliferation or to a decrease in the rate of apoptosis.

HK-2 cells = test: STAT phosphorylation in HK-2 cells treated with RNLS; format: cell-based, human
Source text: STAT3 binds to the promoter region of the RNLS gene and increases its expression (Sonawane et al., 2014 Biochemistry. 53(44):6878-6892).

Panc1 cells = test: western blot of p38 and STAT3 phosphorylation; format: cell-based, human
Source text: FIG. 27, comprising FIGS. 27A through 27E, is a series of images and charts showing the interaction between RNLS and STAT3, and the mechanistic model of inhibition by m28-RNLS. FIG. 27A is an image showing activation of STAT3 by RNLS in Panc1 cells; Panc1 cells in culture treated with either BSA or RNLS, and STAT3 phosphorylation assessed by western blot; p-Ser^727-STAT3: phosphorylation at serine 727, p-Y^705-STAT3: phosphorylation at tyrosine 705; representative study. FIG. 27B is a chart depicting the quantification of STAT3 phosphorylation with RNLS; signals normalized to total STAT3; n=3, *=P<0.05. […] FIG. 27D is a chart showing the quantification of STAT3 phosphorylation with m28-RNLS; signals normalized to GAPDH loading control; n=3, *=P<0.05. FIG. 27E depicts the proposed mechanistic model for antitumor activity of m28-RNLS.

MiaPaCa2 cells = test: FACS cell cycle analysis with rRNLS; format: cell-based, human; details: 30 μg/ml
Experimental: For cell cycle analysis, cultured cells were dissociated using 10 mM EDTA, fixed with ice-cold 70% ethanol, digested with RNAse A, and stained with propidium iodide. Propidium staining was detected using a BD FACSCalibur flow cytometer (BD Biosciences, San Jose, Calif., USA), and analyzed using CellQuest software.

B1: m37-RNLS: rabbit anti-renalase monoclonal raised against RP-220; heavy chain SEQ ID NO:17, light chain SEQ ID NO:18 (antibody)
heavy: METGLRWLLLVAVLKGVQCQSVEESGGRLVTPGGSLTLTCTVSGFSLSDYAIIWVRQAPGKGLEYIAIIGSSGDTFYATWAKGRFTISKTSTTVDLKMTSLTAADTATYFCAPRYAGTTDYHDAFDPWGPGTLVTVSSGQPKAPSVFPLAPCCGDTPSSTVTLGCLVKGYLPEPVTVTWNSGTLTNGVRTFPSVRQSSGLYSLSSVVSVTSSSQPVTCNVAHPATNTKVDKTVAPSTCSKPTCPPPELLGGPSVFIFPPKPKDTLMISRTPEVTCVVVDVSQDDPEVQFTWYINNEQVRTARPPLREQQFNSTIRVVSTLPIAHQDWLRGKEFKCKVHNKALPAPIEKTISKARGQPLEPKVYTMGPPREELSSRSVSLTCMINGFYPSDISVEWEKNGKAEDNYKTTPAVLDSDGSYFLYSKLSVPTSEWQRGDVFTCSVMHEALHNHYTQKSISRSPGK
light: MDTRAPTQLLGLLLLWLPGARCAEVVMTQTPASMEAPMGGTVTIKCQASQNIYNYLSWYQQKPGQPPKLLVYKASTLTSGVPSRFKGSGSGTQFTLTISDLECADAATYYCQINYSIYNHYNIIFGGGTEVVVKGDPVAPTVLIFPPSADLVATGTVTIVCVANKYFPDVTVTWEVDGTTQTTGIENSKTPQNSADCTYNLSSTLTLTSTQYNSHKEYTCKVTQGTTSVVQSFNRGDC
modifications: 1D-37-10 full length heavy chain amino acid; 1D-37-10 full length light chain amino acid
**Q.** For B1, which renalase-type specificity [1] is on record?
**A.** recognize renalase-1 and renalase-2

**Q.** And the “PDACC growth / viability” value [2]?
**A.** inhibitory effects

**Q.** And the “melanoma cell viability / growth in culture” value (melanoma cell lines)?
**A.** decreased the viability of all (total of 5) melanoma cell lines tested

**Q.** And the “melanoma cell viability / growth in culture” value (melanoma cell lines; listed as 1D-37-10)?
**A.** inhibit melanoma cells in culture

**Q.** What about the “melanoma cell viability / growth in culture” value (melanoma cell lines; listed as D-37-10) of the same molecule?
**A.** inhibit melanoma cell growth

B2: 3A-5-2: anti-renalase monoclonal specific for renalase-2; heavy chain SEQ ID NO:41, light chain SEQ ID NO:42 (antibody)
heavy: METGLRWLLLVAVLKGVQCQSLEESGGRLVTPGTPLTLTCTVSGFSLNNYHIYWVRQAPGKGLEYIGIIFNGGTYYARWTKGRFTISKTSTTVDLKMTSLTTEDTATYFCARGDGIWGPGTLVTVSLGQPKAPSVFPLAPCCGDTPSSTVTLGCLVKGYLPEPVTVTWNSGTLTNGVRTFPSVRQSSGLYSLSSVVSVTSSSQPVTCNVAHPATNTKVDKTVAPSTCSKPTCPPPELLGGPSVFIFPPKPKDTLMISRTPEVTCVVVDVSQDDPEVQFTWYINNEQVRTARPPLREQQFNSTIRVVSTLPIAHQDWLRGKEFKCKVHNKALPAPIEKTISKARGQPLEPKVYTMGPPREELSSRSVSLTCMINGFYPSDISVEWEKNGKAEDNYKTTPAVLDSDGSYFLYSKLSVPTSEWQRGDVFTCSVMHEALHNHYTQKSISRSPGK
light: MDTRAPTQLLGLLLLWLPGATFAQVLTQTPASVSAAVGGTVTINCQASQSVFNNNYLAWYQQKPGQPPKRLIYSASTLASGVSSRFKGSGSGTEFTLTMSGVECDDAATYYCAGSFDCNSGDCVAFGGGTEVVVKGDPVAPTVLIFPPAADQVATGTVTIVCVANKYFPDVTVTWEVDGTTQTTGIENSKTPQNSADCTYNLSSTLTLTSTQYNSHKEYTCKVTQGTTSVVQSFNRGDC
modifications: 3A-5-2 full length heavy chain amino acid; 3A-5-2 full length light chain amino acid
**Q.** B2 was tested. Which renalase-type specificity [1] did it give?
**A.** specific for renalase-2

B3: 1F-26-1: anti-renalase monoclonal specific for renalase-1; heavy chain SEQ ID NO:25, light chain SEQ ID NO:26 (antibody)
heavy: METGLRWLLLVAVLKGVQCQSVKESEGGLFKPTDTLTLTCTVSGFSLSSYGVTWVRQAPGNGLEWIGLIGDRGTTFYASWAKSRSTITRNTNLNTVTLKMTRLTAADTATYFCARGSGYGARIWGPGTLVTVSSWQPKAPSVFPLAPCCGDTPSSTVTLGCLVKGYLPEPVTVTWNSGTLTNGVRTFPSVRQSSGLYSLSSVVSVTSSSQPVTCNVAHPATNTKVDKTVAPSTCSKPTCPPPELLGGPSVFIFPPKPKDTLMISRTPEVTCVVVDVSQDDPEVQFTWYINNEQVRTARPPLREQQFNSTIRVVSTLPIAHQDWLRGKEFKCKVHNKALPAPIEKTISKARGQPLEPKVYTMGPPREELSSRSVSLTCMINGFYPSDISVEWEKNGKAEDNYKTTPAVLDSDGSYFLYSKLSVPTSEWQRGDVFTCSVMHEALHNHYTQKSISRSPGK
light: MDTRAPTQLLGLLLLWLPGATFAQVLTQTPSPVSAAVGGTVTINCQSSQSVYKNNYLAWYQQKPGQPPKLLIYETSKLASGVPPRFSGSGSGTQFTLTISSVQCDDAATYYCQGGYSGVDFMAFGGGTEVVVKGDPVAPTVLIFPPSADLVATGTVTIVCVANKYFPDVTVTWEVDGTTQTTGIENSKTPQNSADCTYNLSSTLTLTSTQYNSHKEYTCKVTQGTTSVVQSFNRGDC
modifications: 1F-26-1 full length heavy chain amino acid; 1F-26-1 full length light chain amino acid
**Q.** For B3, which renalase-type specificity [1] is on record?
**A.** specific for renalase-1

B4: 1F-42-7: anti-renalase monoclonal specific for renalase-1; heavy chain SEQ ID NO:33, light chain SEQ ID NO:34 (antibody)
heavy: B3 heavy with S48T, S49T, F76Y, A81V, K82N, S83G, S133A
light: B3 light with V33M, V37L, S50T, K53N, A58S, A79S
modifications: 1F-42-7 full length heavy chain amino acid; 1F-42-7 full length light chain amino acid
**Q.** How did the renalase-type specificity [1] turn out when B4 was run?
**A.** specific for renalase-1

B5: rRNLS: recombinant human RNLS (renalase) (protein, UniProt Q5VYX0 18-342, looked up)
Renalase: ALLRRQTSGPLYLAVWDKAEDSGGRMTTACSPHNPQCTADLGAQYITCTPHYAKKHQRFYDELLAYGVLRPLSSPIEGMVMKEGDCNFVAPQGISSIIKHYLKESGAEVYFRHRVTQINLRDDKWEVSKQTGSPEQFDLIVLTMPVPEILQLQGDITTLISECQRQQLEAVSYSSRYALGLFYEAGTKIDVPWAGQYITSNPCIRFVSIDNKKRNIESSEIGPSLVIHTTVPFGVTYLEHSIEDVQELVFQQLENILPGLPQPIATKCQKWRHSQVTNAAANCPGQMTLHHKPFLACGGDGFTQSNFDGCITSALCVLEALKNYI
**Q.** With B5 as the molecule, how does the “survival of serum-starved melanoma cells compared to BSA” value [3] read?
**A.** markedly increased the survival

**Q.** And the STAT1 (HK-2 cells)?
**A.** unaffected

**Q.** What about the “increase of STAT3 phosphorylation at serine 727 (p-Ser727-STAT3)” value (HK-2 cells) of the same molecule?
**A.** 2 fold

**Q.** And the “increase of STAT3 phosphorylation at tyrosine 705 (p-Y705-STAT3)” value (HK-2 cells)?
**A.** 4 fold

**Q.** And the “phosphorylated STAT3 (p-Ser727-STAT3 and p-Y705-STAT3) after RNLS” value (Panc1 cells)?
**A.** rapid increase

**Q.** What about the “cell cycle progression compared to BSA” value (MiaPaCa2 cells) of the same molecule?
**A.** no effect on cell cycle progression
